# “And” between values parts separate entries of the source, which are not always exact repeats. Equal entries are not always repeated.
# T1: recombinant human TNFR2 antigen (Kangdai, batch number A100114U) (human, UniProt P20333 23-257)
# T1 construct: also called hTNFR2; TNFR2-FC (Shanghai Saijin Biopharmaceutical Co., Ltd., Qiangke, catalog number A100114U); not shown: Fc part of the bought TNFR2-FC
# T1 sequence (looked up): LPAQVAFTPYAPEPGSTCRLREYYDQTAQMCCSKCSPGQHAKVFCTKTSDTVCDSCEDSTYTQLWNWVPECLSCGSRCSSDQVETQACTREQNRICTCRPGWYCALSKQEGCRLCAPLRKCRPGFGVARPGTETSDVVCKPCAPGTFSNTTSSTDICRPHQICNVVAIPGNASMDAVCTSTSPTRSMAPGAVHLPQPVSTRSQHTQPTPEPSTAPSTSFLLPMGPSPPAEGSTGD
# T2: recombinant cynomolgus monkey TNFR2 (Cyno. TNFR2) (Sino Biological, 90102-C021) (cynomolgus monkey, UniProt A0A2K5VET2 132-366)
# T2 sequence: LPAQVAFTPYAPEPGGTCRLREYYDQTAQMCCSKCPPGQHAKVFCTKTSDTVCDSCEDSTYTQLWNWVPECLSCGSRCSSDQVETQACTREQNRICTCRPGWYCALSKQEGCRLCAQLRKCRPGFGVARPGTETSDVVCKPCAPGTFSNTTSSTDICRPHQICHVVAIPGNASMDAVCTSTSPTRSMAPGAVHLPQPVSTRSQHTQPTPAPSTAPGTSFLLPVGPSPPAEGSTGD
# T3: TNFR2-His (Sino Biological, 10417-H08H, NP_001057.1 Met1-Asp257, with multi-histidine tag expressed on … (human, UniProt P20333 23-257))
# T3 construct: range 1-257; Bought protein; also called recombinant human TNFR2 protein; TNFR2-His antigen; not shown: C-terminal multi-histidine tag
# T3 sequence (looked up): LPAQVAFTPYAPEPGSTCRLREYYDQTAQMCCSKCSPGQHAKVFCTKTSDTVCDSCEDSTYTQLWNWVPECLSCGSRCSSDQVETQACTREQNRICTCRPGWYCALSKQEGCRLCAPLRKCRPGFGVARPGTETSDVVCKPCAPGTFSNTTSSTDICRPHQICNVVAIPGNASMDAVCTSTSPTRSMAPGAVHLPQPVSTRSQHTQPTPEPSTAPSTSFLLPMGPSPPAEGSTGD
# T4: human TNFR2 on the cell membrane (human, UniProt P20333 23-461)
# T4 construct: whole, on cells; One molecule for all cell formats; also called TNFR2-CHO cells; CHO-TNFR2
# T4 sequence (looked up): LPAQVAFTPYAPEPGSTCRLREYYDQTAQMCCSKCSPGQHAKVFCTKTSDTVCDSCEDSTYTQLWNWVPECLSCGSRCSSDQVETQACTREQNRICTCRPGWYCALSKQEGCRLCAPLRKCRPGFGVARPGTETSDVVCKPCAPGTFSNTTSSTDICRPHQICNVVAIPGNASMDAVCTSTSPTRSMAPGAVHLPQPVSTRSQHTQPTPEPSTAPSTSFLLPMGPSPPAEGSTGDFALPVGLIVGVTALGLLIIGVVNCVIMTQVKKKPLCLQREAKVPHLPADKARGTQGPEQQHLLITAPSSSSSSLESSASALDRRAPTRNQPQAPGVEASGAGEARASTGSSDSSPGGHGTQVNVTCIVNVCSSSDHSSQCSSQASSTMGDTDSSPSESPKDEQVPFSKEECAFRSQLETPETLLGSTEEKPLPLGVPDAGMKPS
# T5: recombinant mouse TNFR2 (mTNFR2) (Sino Biological, 50128-M08H) (mouse, UniProt P25119 23-258)
# T5 sequence (looked up): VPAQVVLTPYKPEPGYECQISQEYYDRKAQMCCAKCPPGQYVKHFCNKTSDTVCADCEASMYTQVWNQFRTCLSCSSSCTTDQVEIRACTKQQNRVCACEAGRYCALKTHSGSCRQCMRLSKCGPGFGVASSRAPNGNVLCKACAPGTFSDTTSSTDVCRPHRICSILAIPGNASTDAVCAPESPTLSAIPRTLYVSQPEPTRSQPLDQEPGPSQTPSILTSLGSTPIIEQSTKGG
# Legend:
# [1] = biological target: T1, recombinant human TNFR2 antigen …; experiment: ELISA, coated recombinant human TNFR2
# Method: (§1) After TMB development, the detection was performed using microplate reader: dual wavelength 450 nm/655 nm detection, and results were calculated by OD₄₅₀-OD₆₅₅.
# [2] = biological target: T1, recombinant human TNFR2 antigen …; experiment: ELISA, plate coated with recombinant human TNFR2 antigen
# Method: as §1
# [3] = biological target: T2, recombinant cynomolgus monkey TNFR2 …; experiment: ELISA, plate coated with recombinant cynomolgus monkey TNFR2
# Method: as §1
# (§2) Using the same method as above, the TNFR2 antigens of cynomolgus monkey and mouse (Sino Biological, 90102-C021 and 50128-M08H) were coated separately. The anti-human TNFR2 mouse monoclonal antibodies to be tested were gradient diluted, then added with the anti-mouse Fab segment secondary antibody (Jackson Immuno Research, 515-035-072), and TMB development was performed. ELISA was used to detect the binding of 8 strains of mouse monoclonal antibodies to recombinant mouse TNFR2 (mTNFR2) and cynomolgus monkey TNFR2 (Cyno. TNFR2).
# [4] = biological target: T3, TNFR2-His (Sino Biological, 10417-H08H, …); experiment: ELISA, coated TNFR2-His
# How it was run: (§3)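 EC50 was obtained from a dilution series in an ELISA format. Blocked plates carried recombinant human TNFR2 with a C-terminal His tag, and serially diluted antibodies were incubated on them. An enzyme-labelled anti-IgG secondary antibody followed. Plates were then developed with TMB and read on a microplate reader.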
# [5] = biological target: T4, human TNFR2 on the cell membrane; experiment: flow cytometry, CHO-TNFR2 cells; CHO-TNFR2 cells
# How it was run: (§4)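 EC50 values come from flow cytometry of serially diluted antibodies binding CHO cells that stably overexpress human TNFR2. After incubation in 96-deep-well plates, the cells were washed, stained with a fluorescent anti-IgG secondary antibody and read on a Beckman CytoFLEX.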
# [6] = biological target: T4, human TNFR2 on the cell membrane; experiment: flow cytometry on CHO-TNFR2 cells
# How it was run: as §4
# [7] = biological target: T3, TNFR2-His (Sino Biological, 10417-H08H, …); experiment: ELISA, plate coated with TNFR2-His
# How it was run: as §3
# [8] = biological target: T3, TNFR2-His (Sino Biological, 10417-H08H, …); experiment: BLI, antibody captured on AHC probe, TNFR2-His in solution
# How it was run: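 Kon, koff and Kd values come from kinetic association measurements made by bio-layer interferometry (Octet, Basic Kinetics mode). Antibody-capture sensors carrying antibodies at 50 nM in Q buffer (10 mM PBS pH 7.4, 0.02% Tween 20, 0.2% BSA) were placed in recombinant human TNFR2, diluted 2-fold in the same buffer from a top concentration of 100 nM.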
# [9] = biological target: T5, recombinant mouse TNFR2 (mTNFR2) (Sino …); experiment: ELISA, coated mouse TNFR2
# Method: as §1, §2
Binder,EC50 [1] [µg/mL],EC50 [2] [nM],EC50 [3],EC50 [4] [nM],EC50 [5] [nM],EC50 [6] [µg/mL],EC50 [7] [µg/mL],Kd [8] [nM],koff [8] [s⁻¹],kon [8] [M⁻¹ s⁻¹],binding result [9]
"anti-human TNFR2 mouse monoclonal antibody 18A2 (antibody, V domains shown, also called 18A12) VH: DVQLQESGPGLVKPSQSLSLTCSVTGYSITSGYYWNWIRQFPGNKLEWMGYISYDGSNNYNPSLKKRISITRDTSKNQFFLKLNSVTTEDTATYYCTGGSGTSWGQGTLVTVSA VL: DIVMTQSHKFMSTSVGDRVSITCKASQDVTTGIAWYQQKPGQSPKLLIYSASNRFTGVPDRFTGSGSGTDFTFTISSVQAEDLAVYFCQQHYSTPFTFGSGTKLEIQ",0.0465,0.312,> 1 µg/mL and > 6.7 nM,–,–,–,–,–,–,–,–
"11G2huVH2 + huVL2(P07267) (antibody, V domains shown, Humanized 11G2) VH: QVQLVQSGAEVKKPGASVKVSCKASGYTFITYDINWVRQAPGQGLEWIGWIYPRDGNTQFNENFKGRVTMTTDTSTSTAYMELRSLRSDDTAVYYCARGDRDYGYFDVWGQGTTVTVSS VL: DIQMTQSPSSLSASVGDRVTITCRASQDISNYLNWYQQKPGKAPKLLIYFKSKLHSGVPSRFSGSGSGTDFTLTISSLQPEDFATYYCQQGNTLPLTFGGGTKLEIK",–,–,–,0.282,0.144,0.0214,0.0421,7.3,0.00205,280000,–
"11G2huVH2 + huVL1(P07263) (antibody, V domains shown, Humanized 11G2) VH: QVQLVQSGAEVKKPGASVKVSCKASGYTFITYDINWVRQAPGQGLEWIGWIYPRDGNTQFNENFKGRVTMTTDTSTSTAYMELRSLRSDDTAVYYCARGDRDYGYFDVWGQGTTVTVSS VL: DIQMTPSTSSLSASVGDRVTITCRASQDISNYLNWYQQKPGKAVKLLIYFKSKLHSGVPSRFSGSGSGTDFTLTISSLQPEDFATYYCQQGNTLPLTFGGGTKLELK",–,–,–,0.336,0.153,0.0229,0.0502,5.96,0.00171,287000,–
"11G2huVH3 + huVL1(P07264) (antibody, V domains shown, Humanized 11G2) VH: QVQLVQSGAEVKKPGASVKVSCKASGYTFITYDINWVRQATGQGLEWIGWIYPRDGNTQFNENFQGRVTMTRNTSISTAYMELSSLRSEDTAVYYCARGDRDYGYFDVWGQGTTVTVSS VL: DIQMTPSTSSLSASVGDRVTITCRASQDISNYLNWYQQKPGKAVKLLIYFKSKLHSGVPSRFSGSGSGTDFTLTISSLQPEDFATYYCQQGNTLPLTFGGGTKLELK",–,–,–,0.328,0.184,0.0275,0.049,5.1,0.00161,316000,–
"anti-human TNFR2 mouse monoclonal antibody 13F5 (antibody, V domains shown) VH: QVQLQQSGAELVRPGTSVKMSCKASGYTFTNYWIGWTKQRPGHGLEWIGDIFPGGDFTNYNEKFKGKATLTADKSSSTAYLQFSSLTSEDSAIYYCSRRRFTTIVAPGFDYWGQGTTLTVSS VL: QLVLTQSSSASFSLGASAKLTCTLSSQHSMYTIEWYQQQPLKPPKFVMELKKDGSHSTGDGIPDRFSGSSSGADRYLNISNIQPEDEAIYICGVGDTIKEQFVYVFGGGTEVTVL",0.0638,0.428,> 1 µg/mL and > 6.7 nM,–,–,–,–,–,–,–,no binding

# More lines, in order of falling EC50 [4], values ahead:
EC50 [1] [µg/mL],EC50 [2] [nM],EC50 [3],EC50 [4] [nM],EC50 [5] [nM],EC50 [6] [µg/mL],EC50 [7] [µg/mL],Kd [8] [nM],koff [8] [s⁻¹],kon [8] [M⁻¹ s⁻¹],binding result [9],Binder
–,–,–,0.286,0.171,0.0256,0.0427,9.76,0.00255,261000,–,"11G2huVH4 + huVL1(P07265) (antibody, V domains shown, Humanized 11G2) VH: QVQLVQSGAEVKKPGASVKVSCKASGYTFITYDINWVRQAPGQGLEWIGWIYPRDGNTQYAQKFQGRVTMTTDTSTSTAYMELRSLRSDDTAVYYCARGDRDYGYFDVWGQGTTVTVSS VL: DIQMTPSTSSLSASVGDRVTITCRASQDISNYLNWYQQKPGKAVKLLIYFKSKLHSGVPSRFSGSGSGTDFTLTISSLQPEDFATYYCQQGNTLPLTFGGGTKLELK"
–,–,–,0.271,0.2,0.0299,0.0404,7.28,0.0022,302000,–,"11G2huVH3 + huVL2(P07268) (antibody, V domains shown, Humanized 11G2) VH: QVQLVQSGAEVKKPGASVKVSCKASGYTFITYDINWVRQATGQGLEWIGWIYPRDGNTQFNENFQGRVTMTRNTSISTAYMELSSLRSEDTAVYYCARGDRDYGYFDVWGQGTTVTVSS VL: DIQMTQSPSSLSASVGDRVTITCRASQDISNYLNWYQQKPGKAPKLLIYFKSKLHSGVPSRFSGSGSGTDFTLTISSLQPEDFATYYCQQGNTLPLTFGGGTKLEIK"
–,–,–,0.095,0.006,0.0009,0.0141,4.79,0.00115,239000,–,"11G2huVH1 + huVL1(P07262) (antibody, V domains shown, Humanized 11G2) VH: QVQLVQSGAEVKKPGASVKLSCKASGYTFITYDINWVRQAPGQGLEWIGWIYPRDGNTQFNENFKGKATMTVDESTSTAYMEVRSLRSDDTAVYYCARGDRDYGYFDVWGQGTTVTVSS VL: DIQMTPSTSSLSASVGDRVTITCRASQDISNYLNWYQQKPGKAVKLLIYFKSKLHSGVPSRFSGSGSGTDFTLTISSLQPEDFATYYCQQGNTLPLTFGGGTKLELK"
–,–,–,0.094,0.01,0.0014,0.014,7.29,0.00163,223000,–,"11G2huVH5 + huVL1(P07266) (antibody, V domains shown, Humanized 11G2) VH: QVQLVQSGAEVKKPGASVKVSCKASGYTFITYDINWVRQATGQGLEWIGWIYPRDGNTQYAQKFQGRVTMTRNTSISTAYMELSSLRSEDTAVYYCARGDRDYGYFDVWGQGTTVTVSS VL: DIQMTPSTSSLSASVGDRVTITCRASQDISNYLNWYQQKPGKAVKLLIYFKSKLHSGVPSRFSGSGSGTDFTLTISSLQPEDFATYYCQQGNTLPLTFGGGTKLELK"

# Reference: patent US20240392024A1 (SHANGHAI CELGEN BIO PHARMACEUTICAL, published 2024)
